From patent publication US20200331998A1 come the findings set out here.

The target of the experiment is UCART19 CAR (anti-CD19 chimeric antigen receptor with a 4G7-derived scFv, on UCART19 cells). The experiment in a line: flow cytometry blocking assay: fresh UCART19 cells pre-incubated with unconjugated antibody, then stained with labelled soluble CD19-hFc; ligand: m14. A general note: A flow cytometer gives signals particle by particle.
Chain of UCART19 CAR (anti-CD19 chimeric antigen receptor with a 4G7-derived scFv, on UCART19 cells) (chain, as listed by the source mutant): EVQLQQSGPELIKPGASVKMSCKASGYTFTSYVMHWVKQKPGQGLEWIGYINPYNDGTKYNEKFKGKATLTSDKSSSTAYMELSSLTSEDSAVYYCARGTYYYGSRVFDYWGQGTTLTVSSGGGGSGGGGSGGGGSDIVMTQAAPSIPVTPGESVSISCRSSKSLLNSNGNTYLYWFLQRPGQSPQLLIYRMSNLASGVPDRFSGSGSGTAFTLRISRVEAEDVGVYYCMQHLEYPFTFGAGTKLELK

Substance Isotype Control (antibody) showed a CAR+ (% cells stained by APC-sCD19) at 0.2 µg/mL antibody of 52.4%, a CAR+ (% cells stained by APC-sCD19) at 0.39 µg/mL antibody of 52.9%, a CAR+ (% cells stained by APC-sCD19) at 0.78 µg/mL antibody of 53.4% and a CAR+ (% cells stained by APC-sCD19) at 1.56 µg/mL antibody of 52.7%. Moreover, the CAR+ (% cells stained by APC-sCD19) at 3.125 µg/mL antibody is 52.9%, the CAR+ (% cells stained by APC-sCD19) at 6.25 µg/mL antibody was 52.6%, the CAR+ (% cells stained by APC-sCD19) at 12.5 µg/mL antibody is 52.3% and the CAR+ (% cells stained by APC-sCD19) at 25 µg/mL antibody is 52%. Besides, the CAR+ (% cells stained by APC-sCD19) at 50 µg/mL antibody is 53.3% and the CAR+ (% cells stained by APC-sCD19) at 100 µg/mL antibody was 54.8%.
